Measured values reported in patent US11325966.

What was measured:
Assay in all cases: cell-based or functional assay
[1] = molecular target: HIV-1 Env of pseudovirus Du422.1 (HIV-1)
[2] = molecular target: HIV-1 Env of pseudovirus CNE17 (HIV-1)
[3] = molecular target: HIV-1 Env of pseudovirus ZM197M.PB7 (HIV-1)
[4] = molecular target: 92BR020 N156A (HIV-1)
[5] = molecular target: HIV-1 Env of pseudovirus 6480.v4.c25 (HIV-1)
[6] = molecular target: HIV-1 Env of pseudovirus CNE21 (HIV-1)
[7] = molecular target: HIV-1 Env of pseudovirus 246F C1G (HIV-1)
[8] = molecular target: HIV-1 Env of pseudovirus 620345.c01 (HIV-1)
[9] = molecular target: HIV-1 Env of pseudovirus BJOX015000.11.5 (HIV-1)
[10] = molecular target: HIV-1 Env of pseudovirus CAAN5342.A2 (HIV-1)
[11] = molecular target: HIV-1 Env of pseudovirus 231966.c02 (HIV-1)
[12] = molecular target: JR-CSF N392A (HIV-1) (UniProt P20871)
[13] = molecular target: HIV-1 Env of pseudovirus CAP210.2.00.E8 (HIV-1)
[14] = molecular target: JR-CSF D325A (HIV-1) (UniProt P20871)
[15] = molecular target: HIV-1 Env of pseudovirus HIV-16055-2.3 (HIV-1)
[16] = molecular target: 92BR020 N301A + N332A (HIV-1)
[17] = molecular target: BG505 (T332N) N137A (HIV-1)
[18] = molecular target: HIV-1 Env of pseudovirus A07412M1.vrc12 (HIV-1)
[19] = molecular target: HIV-1 Env of pseudovirus SC05_8C11_2344 (HIV-1)
[20] = molecular target: HIV-1 Env of pseudovirus Ce703010054_2A2 (HIV-1)
[21] = molecular target: HIV-1 Env of pseudovirus Du156.12 (HIV-1)
[22] = molecular target: HIV-1 Env of pseudovirus HIV-16845-2.22 (HIV-1)
[23] = molecular target: HIV-1 Env of pseudovirus 191084 B7-19 (HIV-1)
[24] = molecular target: HIV-1 Env of pseudovirus 1394C9G1(Rev-) (HIV-1)
[25] = molecular target: 92BR020 N136A (HIV-1)
[26] = molecular target: 92BR020 I326A (HIV-1)
[27] = molecular target: HIV-1 Env of pseudovirus PVO.4 (HIV-1)
[28] = molecular target: HIV-1 Env of pseudovirus C4118.c09 (HIV-1)
[29] = molecular target: HIV-1 Env of pseudovirus CNE8 (HIV-1)
[30] = molecular target: HIV-1 Env of pseudovirus 62357_14_D3_4589 (HIV-1)
[31] = molecular target: HIV-1 Env of pseudovirus ZM247v1(Rev-) (HIV-1)
[32] = molecular target: HIV-1 Env of pseudovirus P1981_C5_3 (HIV-1)
[33] = molecular target: HIV-1 Env of pseudovirus ZM233M.PB6 (HIV-1)
[34] = molecular target: HIV-1 Env of pseudovirus 6540.v4.c1 (HIV-1)
[35] = molecular target: HIV-1 Env of pseudovirus 3415.v1.c1 (HIV-1)
[36] = molecular target: HIV-1 Env of pseudovirus ZM109F.PB4 (HIV-1)
[37] = molecular target: HIV-1 Env of pseudovirus WEAU_d15_410_787 (HIV-1)
[38] = molecular target: HIV-1 Env of pseudovirus CAP45.2.00.G3 (HIV-1)
[39] = molecular target: 92BR020 N332A (HIV-1)
[40] = molecular target: HIV-1 Env of pseudovirus BJOX025000.01.1 (HIV-1)
[41] = molecular target: HIV-1 Env of pseudovirus Ce2010_F5 (HIV-1)
[42] = molecular target: HIV-1 Env of pseudovirus 3817.v2.c59 (HIV-1)

Substance: PGT121 (antibody)
- IC50 in TZM-bl assay [1]: 0.017 µg/mL
- IC80 in TZM-bl assay [1]: 0.088 µg/mL
- IC50 in TZM-bl assay [2]: 3.96 µg/mL
- IC80 in TZM-bl assay [2]: > 10 µg/mL
- IC50 in TZM-bl assay [3]: > 10 µg/mL
- IC80 in TZM-bl assay [3]: > 10 µg/mL
- IC50 in TZM-bl assay [4]: 0.003 µg/mL
- IC50 in TZM-bl assay [5]: 0.008 µg/mL
- IC50 in TZM-bl assay [6]: 0.009 µg/mL
- IC80 in TZM-bl assay [6]: 0.031 µg/mL
- IC50 in TZM-bl assay [7]: 0.082 µg/mL
- IC80 in TZM-bl assay [7]: 0.363 µg/mL
- IC50 in TZM-bl assay [8]: > 10 µg/mL
- IC80 in TZM-bl assay [8]: > 10 µg/mL
- IC50 in TZM-bl assay [9]: > 10 µg/mL
- IC80 in TZM-bl assay [9]: > 10 µg/mL
- IC50 in TZM-bl assay [10]: 0.008 µg/mL
- IC80 in TZM-bl assay [10]: 0.026 µg/mL
- IC50 in TZM-bl assay [11]: > 10 µg/mL
- IC80 in TZM-bl assay [11]: > 10 µg/mL
- IC50 in TZM-bl assay [12]: 0.017 µg/mL
- IC50 in TZM-bl assay [13]: > 10 µg/mL
- IC80 in TZM-bl assay [13]: > 10 µg/mL
- IC50 in TZM-bl assay [14]: 0.079 µg/mL
- IC50 in TZM-bl assay [15]: 0.772 µg/mL
- IC80 in TZM-bl assay [15]: 7.99 µg/mL
- IC50 in TZM-bl assay [16]: > 1 µg/mL
- IC50 in TZM-bl assay [17]: 0.002 µg/mL
- IC50 in TZM-bl assay [18]: 0.034 µg/mL
- IC80 in TZM-bl assay [18]: 0.255 µg/mL
- IC50 in TZM-bl assay [19]: 0.03 µg/mL
- IC80 in TZM-bl assay [19]: 0.108 µg/mL
- IC50 in TZM-bl assay [20]: > 10 µg/mL
- IC80 in TZM-bl assay [20]: > 10 µg/mL
- IC50 in TZM-bl assay [21]: 0.006 µg/mL
- IC80 in TZM-bl assay [21]: 0.019 µg/mL
- IC50 in TZM-bl assay [22]: 8.51 µg/mL
- IC80 in TZM-bl assay [22]: > 10 µg/mL
- IC50 in TZM-bl assay [23]: 0.038 µg/mL
- IC80 in TZM-bl assay [23]: 0.118 µg/mL
- IC50 in TZM-bl assay [24]: 0.823 µg/mL
- IC80 in TZM-bl assay [24]: 6.23 µg/mL
- IC50 in TZM-bl assay [25]: 0.002 µg/mL
- IC50 in TZM-bl assay [26]: 0.002 µg/mL
- IC50 in TZM-bl assay [27]: 0.094 µg/mL
- IC80 in TZM-bl assay [27]: 0.45 µg/mL
- IC50 in TZM-bl assay [28]: > 10 µg/mL
- IC80 in TZM-bl assay [28]: > 10 µg/mL
- IC50 in TZM-bl assay [29]: > 10 µg/mL
- IC80 in TZM-bl assay [29]: > 10 µg/mL
- IC50 in TZM-bl assay [30]: 6.21 µg/mL
- IC80 in TZM-bl assay [30]: > 10 µg/mL
- IC50 in TZM-bl assay [31]: 0.036 µg/mL
- IC80 in TZM-bl assay [31]: 0.123 µg/mL
- IC50 in TZM-bl assay [32]: 0.002 µg/mL
- IC80 in TZM-bl assay [32]: 0.009 µg/mL
- IC50 in TZM-bl assay [33]: 2.81 µg/mL
- IC80 in TZM-bl assay [33]: > 10 µg/mL
- IC50 in TZM-bl assay [34]: > 10 µg/mL
- IC80 in TZM-bl assay [34]: > 10 µg/mL
- IC50 in TZM-bl assay [35]: > 10 µg/mL
- IC80 in TZM-bl assay [35]: > 10 µg/mL
- IC50 in TZM-bl assay [36]: 8.92 µg/mL
- IC80 in TZM-bl assay [36]: > 10 µg/mL
- IC50 in TZM-bl assay [37]: 0.017 µg/mL
- IC80 in TZM-bl assay [37]: 0.062 µg/mL
- IC50 in TZM-bl assay [38]: 1.3 µg/mL
- IC80 in TZM-bl assay [38]: > 10 µg/mL
- IC50 in TZM-bl assay [39]: 0.08 µg/mL
- IC50 in TZM-bl assay [40]: > 10 µg/mL
- IC80 in TZM-bl assay [40]: > 10 µg/mL
- IC50 in TZM-bl assay [41]: > 10 µg/mL
- IC80 in TZM-bl assay [41]: > 10 µg/mL
- IC50 in TZM-bl assay [42]: > 10 µg/mL
- IC80 in TZM-bl assay [42]: > 10 µg/mL
